Assay results taken from the RNAGym collection of RNA variant scans (doi:10.1073/pnas.2313332121).

B1: TPR t1 (parent)
chain: GACCAAUCUGCCCUCAGAGCUCGAGAACAUCUUCGGAUGCAGAGGAGGCAGGCUUCGGUGGCGCGAUAGCGCCAACGUCCUCAACCUCCAAUGCAUCCCACCACAUGAUGAUGCCUGAAGAGCCUUGGUUUUUUG

Variants of: B1
Assay: polymerase ribozyme fitness, log enrichment relative to wild type (log ratio); higher = more active; in vitro selection for triplet polymerase activity
Outline: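 One round of in vitro selection, in triplicate, was applied to PCR-built, transcribed mutant libraries of each subunit of a heterodimeric triplet polymerase ribozyme. The steps were annealing with a biotinylated primer, partner subunit and triplets, incubation frozen at −7 °C, gel excision of extended constructs, streptavidin-bead capture and RT-PCR. Fitness is the logarithm, base 2, of genotype enrichment over wild-type enrichment from inverse-variance-weighted replicate averages of Illumina-sequenced inputs and outputs, keeping genotypes with ≥10 input reads and ≥1 read per output.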

Variant	polymerase ribozyme fitness (log ratio)
C4U A75G C76A G77U	-2.12
G10U G42A G61C	-5.15
C34U C40U U54C	-4.99
U92G A121C C123G	-0.349
A46U C49U C72A	0.459
U14A G51U C124U G135A	-3.03
G60A C89U C124A	0.913
U9G A121G U131A	1.98
C88A G122A	-1.31
U38A C124A	1.2
A18G G122A	-3.35
C70G A108G	-3.92
C12G A43C G48A	-2.3
G10C G52U G60A C89A	-4.24
U9G A46U G60U A91C G117A	-0.876
C12A C72A G120C	1.29
C22G G52U C73U A95C	-5.41
U55C C70U	-0.302
C4U C15U C72G C99U G120A	-4.79
G69U U112G U125A	1.09
C4U C64A C124U	-5.08
C34G G35U G60C G127C	-7.24
U55G C72U U87C G107U	-4.49
U7G A74G	-0.0909

Variant	polymerase ribozyme fitness (log ratio)
A29G A41G C56A G61A C124A	-1.77
U14A G120C	0.0767
G45U C56U	-1.13
U21A A103U	-6.15
C114G C123U	-4.31
A6G C98G	-6.34
A26U A37C C72G G77A C124G	-2.81
C3A C11U G47A G63U G127C	-3.33
C12U A37C A46U C62A	-2.96
A75G G120A A121C	0.562
C8U C13U G39A C80U C102A	-2.98
A2G G63C A74C U87C A100U	-4.51
A46G G71A C80A U129C	-5.8
U14A G48A C53G C64U	-2.48
U9C A37U G110U	-0.951
C3U U7G C20U U21G G71U G110U C124G	-5.25
A43U G48U C56G U116A	-6.74
A50C A121U	2.16
G60U C72U A111U	-2.86
A37U C56G C72A	-2.62
C64G C88U	-5.96
C40G U92A U109A U116C	-5.03
C8G A29U A68G C88U U125G	-3.26
U9C G45A G48U	-0.16

Variant	polymerase ribozyme fitness (log ratio)
G57A G58A	-0.357
U7A G60A C64U C124A U133C	-1.69
U54G G120A	-0.587
G45A C49A G117A	-2.04
U7C U78C C85A C124G	-0.586
C22U A121C	-3
U116C G135A	-0.82
C88U C114G	-3.05
A5C C13U A46C C64U U78A C79G G113C	-5.7
A75G U87A	-0.246
C56G C72A G110U A111G	-2.87
G44U G69U G117C A121C	-4.54
C13A G120C	-0.417
A50C C72U G135A	-1.52
U7C C40A U109A U129A	-6.42
C12A U78A A119U	-0.914
C20G U112A	-2.38
G52A A118U	0.938
U9A C12A C124U	2.01
U33C C56A	-4.11
G52C G71U	-0.867
A6U C20A G69U C85A	-4.42
C56A C64U G120C	-2.77
U33A C114U	-4.64

Variant	polymerase ribozyme fitness (log ratio)
U32A U112A	-2.37
C4U C12A G44A U116A	-6.42
G63A C82U C94U A95C C115U U132C	-2.7
A46C C53A G60U C102U	-3.11
C34A G71A	-3.26
C31U U112A	-3.16
C22G C49U G110C	-5.9
C49A U96C	-0.589
U55C C72G	-0.713
C8G C34G	-6.45
G63A G128A	-2.19
A27U C49U C79G C86U	-4.94
G44A G71A U87G A90C G135U	-2.38
U78C G93A C101U C123U	-0.0122
U21A C53U A74C	-0.636
C34U G77A A103C G117U G127C U130A	-7.38
C11A C124A	1.26
A50C G110U	-1.99
C70U U126G	-3.3
A46U G47A	-2.18
A16C C56G A121C	-1.27
U7G C101G A121C	-0.603
C8A C53A G69U A119G U131A U134G	1.54
C102A C124G	0.0453

Variant	polymerase ribozyme fitness (log ratio)
C12A C123U G128C	0.474
C49A G58C C88G A91U C104G A119G U133G	-7.73
C82U U125A	-0.249
U96C U133A	-0.456
C56G G93U G135U	-3.52
U38G C49U	-2.12
U38G C124U	0.564
C49A A50C C86U	-0.434
U32C C56A U116G G122A U132C	-3.25
C12G G120U G127U	1.47
G44U U112C	0.722
U55A A74G C82G C123G	1.26
U9C A16U C88A A95C A111U	-5.45
G47A C73G U125A G128A	-3.1
C79G C85U	-2.29
A27U G47A U59A U106G U133G	-4.03
C8A C12A C34U C56G G71A G77A	-4.02
A16C G61C G69U U81A G120C	-3.32
U7A G122A	-0.674
G60C G110A	-1
C20G A100U U112G	-5.11
A41U C72U C88U	-1.2
G10A C72G U96A C104U	-0.61
G48C C49A U129A	-3.14

Variant	polymerase ribozyme fitness (log ratio)
C11U A37U C49A C123U	0.929
C62A C123A	-0.607
G69C C85U C86A	-3.64
G77C U130G	-1.48
C53U C72G C79A	-1.72
C12A G36U C64U A83G G113A	-4.18
G52U U126G	-2.79
C64G C124U	-5.45
C89G	-1.19
G69A A83U	-3.05
C15U G57U C72U C82A A111C A118G	-1.91
C72A A103U	-4.58
C12G U87C	0.621
G10U U92A A111G	-4.02
C40A G52U G63U U112A	-2.78
C8U C64A	-6.53
C12U G48A	-0.765
A26U A74G A121G	-1.18
U21A G35U A74U A111U	-6.43
G77C C101A G127A	-2.16
A26U C56G G69U	-2.73
C8A U96C C123A	1.93
C8G A16U C94A	-0.757
C53G G61U C70U	-0.621

Variant	polymerase ribozyme fitness (log ratio)
G61A C80U A105U	-3.51
C8G C31G C82A C124U	-6.38
C89U G110U	-2.22
C64A C94A	-6.34
C15U G48U A103C C123G	-6.34
A5U C8G C88U C97U G113C	-1.99
A5G G10A C15A G23C U32G G61C A90C	-6.73
C101G A121C	-0.583
C40G U92G G120A	-2.62
A18U G71A G120A	-3.53
C8A G58A G60A	-0.486
U7G C12U C20A C72U	-1.43
A46C A100C C115U U129A	-5.33
C40U G63A C102G C114G G122A	-8.78
C13G C72U C94U C101G	-4.88
C79A A119G	-0.23
C11U C40G C53U C62U C73G C79A C86U	-4.3
C56U U116A G117C	-1.64
G63U G117C	-4.05
G61A G122A	-0.219
A90C A95G	-0.983
C73G	-0.606
C11G G44A U133G	-1.89
